Experimental findings from patent US10494415B2, “Insulin-like growth factor 2 (IGF2) binding agents” (Cancer Research Technology Limited, priority 2015, dated 2019) are described below.

Positions count from the first letter of the chain named. Numbers in names are those of the source.

The target in this assay is IGF2 (Homo sapiens, UniProt P01344). Put plainly: SPR (Biacore T200) of recombinant IGF2R domain 11 mutants on immobilised biotinylated IGF2. The assay is classed as binding. Further details: purchased GroPep. The text has this: Surface plasmon resonance (SPR) binding analysis of recombinant M6P/IGF2R domain 11 mutants interaction with IGF2. Kon indicates association (on) rate; koff, dissociation (off) rate; RU, response units. Binding to IGF2 assessed with BIAcore T200 using purified biotinylated IGF2 and IGF1 on a streptavidin biosensor chip. Recombinant proteins were expressed either in E. coli and/or P. pastoris. All the mutants in the FG and CD loops are on the domain 11^AB5 background for the AB loop unless otherwise stated. All experiments were carried out at 25° C. in HBS-EP buffer (pH 7.4), were repeated 2-5 times on two independent BIAcore chips. nd=not determined. Data for KD expressed as mean of each experiment, and means of kon and koff are shown.
Measurements were carried out at 25° C. in HBS-EP buffer (pH 7.4) (nd=not determined, np=no protein). Data for KD expressed as mean of each experiment, and means of kon and koff are shown.
Measurements were carried out at 25° C. in MES-EP buffer, 20 mM MES pH 6.5, 150 mM NaCl, 3 mM EDTA, and 0.005% (v/v) surfactant P20). Data for KD expressed as mean of each experiment, and means of kon and koff are shown.
Final kinetic analysis of mutants by SPR was conducted using a Biacore T200 biosensor at 25° C. in either HBS-EP (10 mM HEPES pH 7.4, 150 mM NaCl, 3 mM EDTA, and 0.005% (v/v) surfactant P20) or MES-EP (20 mM MES pH 6.5, 150 mM NaCl, 3 mM EDTA, and 0.005% (v/v) surfactant P20) at a flow-rate of 40 μL min^−1. […] For the analysis of the Fc-domain 11^AB5 interaction, approximately 50 RU of a biotinylated IGF2:biotinylated ubiquitin mixture (1:8 proportion) was immobilized on the CM5-streptavidin chip. This interaction was also analysed by immobilizing the Fc-domain 11^AB5 and Fc-domain 11^AB5-RHH (or Fc-domain 11^I1572A as control) by Human Antibody Capture (monoclonal mouse anti-human IgG antibody immobilised on a CM5 chip by amine coupling, GE Healthcare) with and without human IgG1 Fc fragment (Bethyl Laboratories, UK) in the control flow cell. Increasing concentrations of IGF2^1-67, proIGF2^1-104, proIGF2^1-156 and IGF1 ranging from 0.125 to 32 nM were injected. T200 BiaEvaluation software (GE Healthcare) was used to fit the resulting curves according to a 1:1 binding model. Steady state affinities were determined using the kinetic data, taking the response average at 5 seconds before injection end and for 5 seconds average. Thermodynamic data was performed across the temperature range of 10° C. to 30° C., van't Hoff and Erying plots generated and ΔH, −TΔS and ΔG values determined as previously described.
(In general: In SPR one partner is held on a chip, and binding of the other changes the refractive index at the surface.)

Sequence of IGF2 (P01344 25-91): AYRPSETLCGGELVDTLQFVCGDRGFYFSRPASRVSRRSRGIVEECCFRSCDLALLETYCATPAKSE

B1: AB3 Q1569R P1597K: domain 11 AB3 + Q1569R, P1597K (protein)
chain: MKSNEHDDCQVTNPSTGHLFDLSSLSGRAGFTAAYSKSGVVYMSICGENENCPPGVGACFGRTRISVGKANKRLRYVDQVLQLVYKDGSKCPSKSGLSYKSVISFVCRPEAGPTNRPMLISLDKQTCTLFFSWHTPLACEQATECSV
In the case of B1, for the setting “Table 3, 25° C., HBS-EP pH 7.4”, the Kinetics koff stood at 0.0241 s⁻¹ and the Kinetics kon worked out at 2e+07 M⁻¹ s⁻¹.

B2: AB5 Q1569R P1597K: domain 11 AB5 + Q1569R, P1597K (protein)
chain: B1 chain with S36A, S38G, G39W, V40G
With B2, where the note is “Table 3, 25° C., HBS-EP pH 7.4”, the Kinetics koff came to 0.0091 s⁻¹ and the Kinetics kon was 9.59e+06 M⁻¹ s⁻¹.

B3: AB3 Q1569R P1597H S1602H: domain 11 AB3 + Q1569R, P1597H, S1602H (protein)
chain: B1 chain with K90H, S95H
As for B3, under “Table 3, 25° C., HBS-EP pH 7.4”, the Kinetics koff was 0.010 s⁻¹ and the Kinetics kon came out at 1.41e+07 M⁻¹ s⁻¹. For the setting “Table 4, MES-EP pH 6.5”, the Kinetics koff is 0.0064 s⁻¹ and the Kinetics kon was 1.61e+07 M⁻¹ s⁻¹.

B4: AB5 Q1569R P1597H G1603K: domain 11 AB5 + Q1569R, P1597H, G1603K (protein)
chain: B1 chain with S36A, S38G, G39W, V40G, K90H, G96K
B4: for the setting “Table 3, 25° C., HBS-EP pH 7.4”, the Kinetics koff worked out at 0.0058 s⁻¹ and the Kinetics kon amounted to 6.67e+06 M⁻¹ s⁻¹. Where the note is “Table 4, MES-EP pH 6.5”, the Kinetics koff turned out to be 0.0051 s⁻¹ and the Kinetics kon was 7.54e+06 M⁻¹ s⁻¹.

B5: AB5 Q1569R P1597H K1631W: domain 11 AB5 + Q1569R, P1597H, K1631W (protein)
chain: B1 chain with S36A, S38G, G39W, V40G, K90H, K124W
Turning to B5, where the note is “Table 3, 25° C., HBS-EP pH 7.4”, the Kinetics koff is 0.0115 s⁻¹ and the Kinetics kon was 1.12e+07 M⁻¹ s⁻¹.

B6: AB5 P1597S: domain 11 AB5 + P1597S (protein)
chain: B1 chain with S36A, S38G, G39W, V40G, R62Q, K90S
As to B6, under “Table 3, 25° C., HBS-EP pH 7.4”, the Kinetics koff is 0.0193 s⁻¹ and the Kinetics kon came to 5e+06 M⁻¹ s⁻¹.

B7: AB5 P1597A: domain 11 AB5 + P1597A (protein)
chain: B1 chain with S36A, S38G, G39W, V40G, R62Q, K90A
As to B7, where the note is “Table 3, 25° C., HBS-EP pH 7.4”, the Kinetics koff was determined as 0.0174 s⁻¹ and the Kinetics kon came out at 1.9e+06 M⁻¹ s⁻¹.

B8: AB5 Q1569R P1597K S1602H: domain 11 AB5 + Q1569R, P1597K, S1602H (protein)
chain: B1 chain with S36A, S38G, G39W, V40G, S95H
On to B8, for which, under “Table 3, 25° C., HBS-EP pH 7.4”, the Kinetics koff came out at 0.0073 s⁻¹ and the Kinetics kon amounted to 7.87e+06 M⁻¹ s⁻¹.

B9: AB3 P1597K S1602H: domain 11 AB3 + P1597K, S1602H (protein)
chain: B1 chain with R62Q, S95H
On to B9, for which, under “Table 3, 25° C., HBS-EP pH 7.4”, the Kinetics koff is 0.0102 s⁻¹ and the Kinetics kon was determined as 2.74e+06 M⁻¹ s⁻¹.

B10: AB5 P1597K: domain 11 AB5 + P1597K (protein)
chain: B1 chain with S36A, S38G, G39W, V40G, R62Q
As for B10, where the note is “Table 3, 25° C., HBS-EP pH 7.4”, the Kinetics koff is 0.0120 s⁻¹ and the Kinetics kon is 9.54e+06 M⁻¹ s⁻¹.

B11: AB3 Q1569R P1597K S1602H: domain 11 AB3 + Q1569R, P1597K, S1602H (protein)
chain: B1 chain with S95H
For B11, under “Table 3, 25° C., HBS-EP pH 7.4”, the Kinetics koff was 0.016 s⁻¹ and the Kinetics kon was 2.01e+07 M⁻¹ s⁻¹.

B12: AB5 P1597N: domain 11 AB5 + P1597N (protein)
chain: B1 chain with S36A, S38G, G39W, V40G, R62Q, K90N
Regarding B12, under “Table 3, 25° C., HBS-EP pH 7.4”, the Kinetics koff worked out at 0.0180 s⁻¹ and the Kinetics kon turned out to be 4.72e+06 M⁻¹ s⁻¹.

B13: AB3 Q1569R P1597K S1602H G1603K: domain 11 AB3 + Q1569R, P1597K, S1602H, G1603K (protein)
chain: B1 chain with S95H, G96K
Consider B13, for which, for the setting “Table 3, 25° C., HBS-EP pH 7.4”, the Kinetics koff was 0.0171 s⁻¹ and the Kinetics kon amounted to 2.08e+07 M⁻¹ s⁻¹.

B14: AB5 Q1569R: domain 11 AB5 + CD loop Q1569R (protein)
chain: B1 chain with S36A, S38G, G39W, V40G, K90P
Take B14: where the note is “Table 3, 25° C., HBS-EP pH 7.4”, the Kinetics koff turned out to be 0.0175 s⁻¹ and the Kinetics kon stood at 8.04e+06 M⁻¹ s⁻¹.

B15: AB3 P1597H HI^23D: domain 11 AB3 + P1597H + HI loop of clone 23D (HFQS) (protein)
chain: B1 chain with R62Q, K90H, D123H, K124F, T126S
On to B15, for which the Kinetics koff (Table 3, 25° C., HBS-EP pH 7.4) is 0.012 s⁻¹.

B16: AB5 Q1569R P1597H: domain 11 AB5 + Q1569R, P1597H (protein)
chain: B1 chain with S36A, S38G, G39W, V40G, K90H
Consider B16, for which, under “Table 3, 25° C., HBS-EP pH 7.4”, the Kinetics koff came out at 0.0058 s⁻¹ and the Kinetics kon came to 3.2e+06 M⁻¹ s⁻¹. Further, where the note is “Table 4, MES-EP pH 6.5”, the Kinetics koff worked out at 0.0034 s⁻¹ and the Kinetics kon was found to be 2.37e+06 M⁻¹ s⁻¹.

B17: AB3 P1597H K1631W: domain 11 AB3 + P1597H, K1631W (protein)
chain: B1 chain with R62Q, K90H, K124W
B17: where the note is “Table 3, 25° C., HBS-EP pH 7.4”, the Kinetics koff stood at 0.3478 s⁻¹ and the Kinetics kon came out at 1.97e+07 M⁻¹ s⁻¹.

B18: AB5 P1597H S1602H: domain 11 AB5 + P1597H, S1602H (protein)
chain: B1 chain with S36A, S38G, G39W, V40G, R62Q, K90H, S95H
For B18, where the note is “Table 3, 25° C., HBS-EP pH 7.4”, the Kinetics koff was 0.0046 s⁻¹ and the Kinetics kon was found to be 3.5e+06 M⁻¹ s⁻¹. Moreover, under “Table 4, MES-EP pH 6.5”, the Kinetics koff is 0.0029 s⁻¹ and the Kinetics kon was determined as 5.32e+06 M⁻¹ s⁻¹.

B19: AB5 P1597H: domain 11 AB5 + P1597H (protein)
chain: B1 chain with S36A, S38G, G39W, V40G, R62Q, K90H
Consider B19, for which, under “Table 3, 25° C., HBS-EP pH 7.4”, the Kinetics koff was 0.0070 s⁻¹ and the Kinetics kon amounted to 3.68e+06 M⁻¹ s⁻¹.

B20: AB5 HI^23D: domain 11 AB5 + HI loop of clone 23D (HFQS) (protein)
chain: B1 chain with S36A, S38G, G39W, V40G, R62Q, K90P, D123H, K124F, T126S
With B20, the Kinetics koff (Table 3, 25° C., HBS-EP pH 7.4) was determined as 0.012 s⁻¹.

B21: AB5 P1597Q: domain 11 AB5 + P1597Q (protein)
chain: B1 chain with S36A, S38G, G39W, V40G, R62Q, K90Q
Consider B21, for which, for the setting “Table 3, 25° C., HBS-EP pH 7.4”, the Kinetics koff came to 0.0203 s⁻¹ and the Kinetics kon came to 6.53e+06 M⁻¹ s⁻¹.

B22: AB5 P1597L: domain 11 AB5 + P1597L (protein)
chain: B1 chain with S36A, S38G, G39W, V40G, R62Q, K90L
As to B22, under “Table 3, 25° C., HBS-EP pH 7.4”, the Kinetics koff is 0.0150 s⁻¹ and the Kinetics kon worked out at 4.18e+06 M⁻¹ s⁻¹.

B23: AB5 Q1569R P1597H S1602H G1603K: domain 11 AB5 + Q1569R, P1597H, S1602H, G1603K (protein)
chain: B1 chain with S36A, S38G, G39W, V40G, K90H, S95H, G96K
As to B23, the Kinetics koff (Table 3, 25° C., HBS-EP pH 7.4) was determined as 0.005 s⁻¹.

B24: AB5 P1597K S1602H: domain 11 AB5 + P1597K, S1602H (protein)
chain: B1 chain with S36A, S38G, G39W, V40G, R62Q, S95H
Regarding B24, for the setting “Table 3, 25° C., HBS-EP pH 7.4”, the Kinetics koff was 0.0096 s⁻¹ and the Kinetics kon came to 2.09e+06 M⁻¹ s⁻¹.
